Measured values published in US20230183753A1, “Methods of in Vitro Cell Delivery” (Intellia Therapeutics, Inc., priority 2020, published 2023).
Oligonucleotides are written 5' to 3', each unit as a sugar letter and its base; * is a phosphorothioate linkage, no mark a phosphodiester; rarer units and linkages stand in square brackets, end groups in braces. Plain capitals give the bases only. m = 2'-O-methyl; r = 2'-OH (RNA)

Columns and labels:
[1] = tested on: B2M, TRAC, TRBC1/2, CIITA; test: NGS editing profile of T cells with BC22n or Cas9 mRNA, single or four guides, LNP titration, Example 16A; assay type: cell-based, human; conditions: LNP;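 also: activated T cells exposed to LNPs 72 h after activation, kept at 37 °C, harvested on day 10 post activation, editing measured by NGS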
Method: Cells were expanded in T cell basal media for 72 hours prior to LNP transfection.
LNPs were mixed to fixed total mRNA weight ratios of 6:3:2 for editor mRNA, guide RNA, and UGI mRNA respectively as described in Table 12. […] LNP mixtures were incubated for 5 minutes at 37° C. in T cell basal media substituting 6% cynomolgus monkey serum (Bioreclamation IVT, Cat. CYN220760) for fetal bovine serum.
T cells were incubated at 37° C. with 5% CO2 for the duration of the experiment.
In total, T cells were exposed to 6 different LNPs simultaneously (editor mRNA, UGI mRNA, 4 guides).

[2] = tested on: B2M, CD3, MHC II; test: Flow cytometry of antigen negative T cells (B2M, CD3, MHC II) after BC22n or Cas9 editing, Example 16A; assay type: cell-based, human
From the text: Cells were subsequently washed, processed on a Cytoflex instrument (Beckman Coulter) and analyzed using the FlowJo software package. T cells were gated based on size, shape, viability, and antigen expression.

[3] = multiple guide delivery (four guides simultaneously), locus of the guide assayed, editor BC22n, total RNA 8.6 ng
[4] = multiple guide delivery (four guides simultaneously), locus of the guide assayed, editor BC22n, total RNA 17.2 ng
[5] = multiple guide delivery (four guides simultaneously), locus of the guide assayed, editor BC22n, total RNA 34.4 ng
[6] = multiple guide delivery (four guides simultaneously), locus of the guide assayed, editor BC22n, total RNA 68.8 ng
[7] = multiple guide delivery (four guides simultaneously), locus of the guide assayed, editor BC22n, total RNA 137.5 ng
[8] = multiple guide delivery (four guides simultaneously), locus of the guide assayed, editor BC22n, total RNA 275.0 ng
[9] = multiple guide delivery (four guides simultaneously), locus of the guide assayed, editor BC22n, total RNA 550.0 ng
[10] = multiple guide delivery (four guides simultaneously), locus of the guide assayed, editor Cas9, total RNA 8.6 ng
[11] = multiple guide delivery (four guides simultaneously), locus of the guide assayed, editor Cas9, total RNA 17.2 ng
[12] = multiple guide delivery (four guides simultaneously), locus of the guide assayed, editor Cas9, total RNA 34.4 ng
[13] = multiple guide delivery (four guides simultaneously), locus of the guide assayed, editor Cas9, total RNA 68.8 ng
[14] = multiple guide delivery (four guides simultaneously), locus of the guide assayed, editor Cas9, total RNA 137.5 ng
[15] = multiple guide delivery (four guides simultaneously), locus of the guide assayed, editor Cas9, total RNA 275.0 ng
[16] = multiple guide delivery (four guides simultaneously), locus of the guide assayed, editor Cas9, total RNA 550.0 ng
[17] = single guide delivery, editor BC22n, total RNA 8.6 ng
[18] = single guide delivery, editor BC22n, total RNA 17.2 ng
[19] = single guide delivery, editor BC22n, total RNA 34.4 ng
[20] = single guide delivery, editor BC22n, total RNA 68.8 ng
[21] = single guide delivery, editor BC22n, total RNA 137.5 ng
[22] = single guide delivery, editor BC22n, total RNA 275.0 ng
[23] = single guide delivery, editor BC22n, total RNA 550.0 ng
[24] = single guide delivery, editor Cas9, total RNA 8.6 ng
[25] = single guide delivery, editor Cas9, total RNA 17.2 ng
[26] = single guide delivery, editor Cas9, total RNA 34.4 ng
[27] = single guide delivery, editor Cas9, total RNA 68.8 ng
[28] = single guide delivery, editor Cas9, total RNA 137.5 ng
[29] = single guide delivery, editor Cas9, total RNA 275.0 ng
[30] = single guide delivery, editor Cas9, total RNA 550.0 ng

B1: G018117: guide targeting CIITA (SEQ ID NO: 714) (nucleic acid)
guide: mG*mC*mG*rUrCrCrArCrArUrCrCrUrGrCrArArGrGrGrGrUrUrUrUrArGrAmGmCmUmAmGmAmAmAmUmAmGmCrArArGrUrUrArArArArUrArArGrGrCrUrArGrUrCrCrGrUrUrArUrCrAmAmCmUmUmGmAmAmAmAmAmGmUmGmGmCmAmCmCmGmAmGmUmCmGmGmUmGmCmU*mU*mU*mU
B1 was tested, and the C-to-A/G % mean [1, 3] was 3.1%, the C-to-T % mean [1, 3] was 4.6% and the Indel % mean [1, 3] was 0.8%. For the same molecule, the C-to-A/G % mean [1, 4] was 2.9%, the C-to-T % mean [1, 4] was 10.5% and the Indel % mean [1, 4] was 1.1%. The C-to-A/G % mean [1, 5] was 2.9%, the C-to-T % mean [1, 5] was 18.8% and the Indel % mean [1, 5] was 1.6%. It also gave a C-to-A/G % mean [1, 6] of 2.7%, a C-to-T % mean [1, 6] of 35.1% and an Indel % mean [1, 6] of 1.6%. It also gave a C-to-A/G % mean [1, 7] of 2.9%, a C-to-T % mean [1, 7] of 52.9% and an Indel % mean [1, 7] of 1.5%. The C-to-A/G % mean [1, 8] was 2.5%, the C-to-T % mean [1, 8] was 71.9% and the Indel % mean [1, 8] was 1.3%. For the same molecule, the C-to-A/G % mean [1, 9] was 2.6%, the C-to-T % mean [1, 9] was 81.1% and the Indel % mean [1, 9] was 1.1%. The C-to-A/G % mean [1, 10] was 2.6%, the C-to-T % mean [1, 10] was 0.2% and the Indel % mean [1, 10] was 1.4%. For the same molecule, the C-to-A/G % mean [1, 11] was 2.5%, the C-to-T % mean [1, 11] was 0.2% and the Indel % mean [1, 11] was 2.1%. It also gave a C-to-A/G % mean [1, 12] of 2.5%, a C-to-T % mean [1, 12] of 0.3% and an Indel % mean [1, 12] of 3.9%. For the same molecule, the C-to-A/G % mean [1, 13] was 2.5%, the C-to-T % mean [1, 13] was 0.2% and the Indel % mean [1, 13] was 7.7%. The C-to-A/G % mean [1, 14] was 2.2%, the C-to-T % mean [1, 14] was 0.2% and the Indel % mean [1, 14] was 13.3%. The C-to-A/G % mean [1, 15] was 1.9%, the C-to-T % mean [1, 15] was 0.1% and the Indel % mean [1, 15] was 26.7%. The C-to-A/G % mean [1, 16] was 1.7%, the C-to-T % mean [1, 16] was 0.1% and the Indel % mean [1, 16] was 42.3%. For the same molecule, the C-to-A/G % mean [1, 17] was 3.8%, the C-to-T % mean [1, 17] was 14.5% and the Indel % mean [1, 17] was 3.5%. It also gave a C-to-A/G % mean [1, 18] of 3.5%, a C-to-T % mean [1, 18] of 28.1% and an Indel % mean [1, 18] of 3.9%. The C-to-A/G % mean [1, 19] was 3.3%, the C-to-T % mean [1, 19] was 45.9% and the Indel % mean [1, 19] was 3.6%. The C-to-A/G % mean [1, 20] was 3.6%, the C-to-T % mean [1, 20] was 62.8% and the Indel % mean [1, 20] was 3.7%. It also gave a C-to-A/G % mean [1, 21] of 2.7%, a C-to-T % mean [1, 21] of 78.9% and an Indel % mean [1, 21] of 2.7%. It also gave a C-to-A/G % mean [1, 22] of 2.6%, a C-to-T % mean [1, 22] of 86.3% and an Indel % mean [1, 22] of 2.0%. For the same molecule, the C-to-A/G % mean [1, 23] was 2.6%, the C-to-T % mean [1, 23] was 92.3% and the Indel % mean [1, 23] was 1.1%. It also gave a C-to-A/G % mean [1, 24] of 2.5%, a C-to-T % mean [1, 24] of 0.3% and an Indel % mean [1, 24] of 6.0%. It also gave a C-to-A/G % mean [1, 25] of 2.4%, a C-to-T % mean [1, 25] of 0.2% and an Indel % mean [1, 25] of 11.2%. For the same molecule, the C-to-A/G % mean [1, 26] was 2.1%, the C-to-T % mean [1, 26] was 0.2% and the Indel % mean [1, 26] was 20.8%. For the same molecule, the C-to-A/G % mean [1, 27] was 1.9%, the C-to-T % mean [1, 27] was 0.2% and the Indel % mean [1, 27] was 33.2%. It also gave a C-to-A/G % mean [1, 28] of 1.3%, a C-to-T % mean [1, 28] of 0.1% and an Indel % mean [1, 28] of 51.2%. It also gave a C-to-A/G % mean [1, 29] of 0.9%, a C-to-T % mean [1, 29] of 0.1% and an Indel % mean [1, 29] of 64.5%. For the same molecule, the C-to-A/G % mean [1, 30] was 0.6%, the C-to-T % mean [1, 30] was 0.1% and the Indel % mean [1, 30] was 78.4%. The “percent cells negative for antigen, HLA DR DP DQ neg, Mean %” value (“percent cells negative … Mean %” below) ([2]; editor BC22n, total RNA 8.6 ng) was 41.6%, the “percent cells negative … Mean %” value ([2]; editor BC22n, total RNA 17.2 ng) was 49.9% and the “percent cells negative … Mean %” value ([2]; editor BC22n, total RNA 34.4 ng) was 65.8%. For the same molecule, the “percent cells negative … Mean %” value ([2]; editor BC22n, total RNA 68.8 ng) was 74.5%, the “percent cells negative … Mean %” value ([2]; editor BC22n, total RNA 137.5 ng) was 85.2% and the “percent cells negative … Mean %” value ([2]; editor BC22n, total RNA 275.0 ng) was 92.5%. The “percent cells negative … Mean %” value ([2]; editor BC22n, total RNA 550.0 ng) was 95.7%, the “percent cells negative … Mean %” value ([2]; editor Cas9, total RNA 8.6 ng) was 34.2% and the “percent cells negative … Mean %” value ([2]; editor Cas9, total RNA 17.2 ng) was 36.2%. The “percent cells negative … Mean %” value ([2]; editor Cas9, total RNA 34.4 ng) was 40.7%, the “percent cells negative … Mean %” value ([2]; editor Cas9, total RNA 68.8 ng) was 48.9% and the “percent cells negative … Mean %” value ([2]; editor Cas9, total RNA 137.5 ng) was 55.5%. For the same molecule, the “percent cells negative … Mean %” value ([2]; editor Cas9, total RNA 275.0 ng) was 65.6% and the “percent cells negative … Mean %” value ([2]; editor Cas9, total RNA 550.0 ng) was 72.0%.
